According to paper PMC1363732, “SUV39H1 interacts with HTLV-1 Tax and abrogates Tax transactivation of HTLV-1 LTR” (Retrovirology, 2006):

Columns and labels:
[1] = target: T1, bacterially expressed GST-SUV39H1, wild type (human, UniProt O43463 1-412); experiment: pull-down; GST-SUV39H1 bound to Glutathione-Sepharose 4B, mixed with in vitro translated 35S-labeled Tax proteins (one fourth of the reaction mixture); autoradiography, signals by BAS2000; conditions: one partner purified
T1 construct: human SUV39H1, wild type; cDNA amplified from the start to the stop codon (SUV39H1-F1, SUV39H1-R1); the text counts the protein to amino acid 412; also called SUV39H1-WT; GST-fusion SUV39H1; source: bacterially expressed (pGEX5X-3), purified (Glutathione Sepharose 4B)
T1 sequence (looked up): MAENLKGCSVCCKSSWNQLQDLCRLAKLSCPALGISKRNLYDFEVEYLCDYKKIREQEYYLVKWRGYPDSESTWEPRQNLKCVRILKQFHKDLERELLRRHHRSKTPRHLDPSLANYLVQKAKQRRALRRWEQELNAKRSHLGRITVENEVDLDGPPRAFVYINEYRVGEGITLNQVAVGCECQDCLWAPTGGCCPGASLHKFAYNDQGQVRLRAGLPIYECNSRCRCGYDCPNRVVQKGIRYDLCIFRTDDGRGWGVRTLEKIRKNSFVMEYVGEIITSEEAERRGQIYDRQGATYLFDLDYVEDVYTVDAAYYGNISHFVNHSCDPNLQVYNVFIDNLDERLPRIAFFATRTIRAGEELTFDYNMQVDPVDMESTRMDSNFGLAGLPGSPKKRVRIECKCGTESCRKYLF

GST-SUV39H1 ΔSET = target: T2, GST-SUV39H1 ΔSET (human, UniProt O43463 1-249); experiment: pull-down; wild type or mutant GST-SUV39H1 or GST (2 ug) bound to Glutathione-Sepharose 4B, mixed with His-tagged Tax (2 ug) in cold PBS, 4°C, one hour; immunoblot with Lt-4; band intensities by NIH Image; conditions: both partners purified
T2 construct: human SUV39H1 that lost the SET domain and the C-terminal cysteine-rich region but keeps the SET-associated Cys-rich (SAC) domain; the text states no limits; source: bacterially expressed (pGEX5X-3), purified (Glutathione Sepharose 4B)
T2 sequence (looked up): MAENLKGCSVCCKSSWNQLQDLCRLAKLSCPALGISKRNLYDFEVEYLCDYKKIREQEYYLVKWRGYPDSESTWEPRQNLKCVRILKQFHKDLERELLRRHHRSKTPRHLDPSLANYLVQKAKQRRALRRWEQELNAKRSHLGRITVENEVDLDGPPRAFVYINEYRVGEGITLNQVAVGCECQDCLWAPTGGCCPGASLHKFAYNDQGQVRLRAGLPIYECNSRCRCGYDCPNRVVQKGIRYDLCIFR

GST-SUV39H1 Nchromo = target: T3, GST-SUV39H1 Nchromo (human, UniProt O43463 1-118); experiment: as above; conditions: both partners purified
T3 construct: human SUV39H1, C-terminal deletion up to amino acid 118 (SAC domain lost); source: bacterially expressed (pGEX5X-3), purified (Glutathione Sepharose 4B)
T3 sequence (looked up): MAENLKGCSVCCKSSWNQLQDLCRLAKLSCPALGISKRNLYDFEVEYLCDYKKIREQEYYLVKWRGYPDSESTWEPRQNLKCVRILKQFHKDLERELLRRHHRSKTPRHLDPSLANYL

B1: in vitro translated TaxN180 (domain or fragment)
chain: not shown
modifications: labeled with 35S-methionine
notes: HTLV-1 Tax with a C-terminal deletion up to 180 amino acids; source: in vitro translated (TNT QuickCoupled Transcription/Translation Systems, Promega)
radioactivity relative to the wild type Tax [1]: ~0.5 of the radioactivity of the wild type Tax

B2: histidine-tagged wild type Tax (His-Tax) (natural protein)
chain: not shown
notes: Tax protein of HTLV-1, wild type; also called His-tagged Tax protein; source: bacterially expressed (pET3d/Tax), purified (ProBond Resin)
band intensity relative to the wild type (GST-SUV39H1 ΔSET): < 0.5 of the band intensity of the wild type
band intensity relative to the wild type (GST-SUV39H1 Nchromo): ~0.1 of the band intensity of the wild type
